± gives the half width of the 95% confidence interval.
Tests used:
[1] = folding stability dG unfold from chymotrypsin proteolysis; higher = more stable
How it was run: (§1)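 Sequencing followed digestion of designed mini-proteins with trypsin and chymotrypsin, each at 11 concentrations in threefold dilutions together with a no-protease condition. The mini-proteins were under 80 residues, had no cysteine, sat in a PA-tagged cDNA display construct, and were kept only if AlphaFold2 dimer inter-PAE was above 15. From the counts, Bayesian fitting gave K50, and unfolding free energy was derived against a sequence-predicted unfolded-state K50 and a shared folded-state K50, per protease or combined.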

[2] = folding stability dG unfold from trypsin proteolysis; higher = more stable
How it was run: as §1

[3] = folding stability dG unfold (combined trypsin and chymotrypsin); higher = more stable
How it was run: as §1

Sequence | folding stability dG unfold [1] [kcal/mol] | folding stability dG unfold [2] [kcal/mol] | folding stability dG unfold [3] [kcal/mol]
SAGGSAGGSALPEAEVLEVRFSPDGRRVDAVLRLDGELLVLRIDFPPDGTARIELYPAEDISAGGSAGGSAG [r3_167_TrMRF] | 2.43 ± 0.068 | 1.05 ± 0.065 | 2.07 ± 0.13
SAGGSAGGSAMEILSKEIIPNNDLIIIDIKVKKKNKEYIYKLIIKGDKIIKISEIEIDDAPSAGGSAGGSAG [r3_48_TrMRF] | 2.5 ± 0.081 | 1.37 ± 0.13 | 2.15 ± 0.26
SAGGSAGGSAMIEISSYTLPNGELVVEVTIPDPNSDKTTTLRGKYSSLEEAREEAEKLYLQSAGGSAGGSAG [r3_174_JUSTAS] | 1.84 ± 0.12 | 1.52 ± 0.051 | 1.69 ± 0.12
SAGGSAGGSAMITTYDPKTGLVYELVPDPVPGVGVERLVVRVVTVEEFPDAIVRKVEVRPESAGGSAGGSAG [r3_409_JUSTAS] | 1.01 ± 0.074 | -0.211 ± 0.22 | 0.67 ± 0.14
SAGGSAGGSAMIVKEFVTYDPSTGTRTRTTVTLELYDSPEGGAVVVLEEEVDPVGPLPPLESAGGSAGGSAG [r3_397_JUSTAS] | 0.000665 ± 0.17 | 0.704 ± 0.062 | 0.323 ± 0.12
SAGGSAGGSAMKIEIEVDPKTNVIYIRVNGLVYRFTKSEDGYIYIEVYDKNGKLIETFRLKLSAGGSAGGSA [r18_333_TrROS_Hall] | 4.83 ± 0.1 | 3.52 ± 0.13 | 4.4 ± 0.18
SAGGSAGGSAMKILSVTEEVLPNGTRVVRVTVKLPTPKTREIVVSPEVVEAGRLDEVVEELLSAGGSAGGSA [r18_129_JUSTAS] | 1.82 ± 0.031 | 1.38 ± 0.033 | 1.66 ± 0.062
SAGGSAGGSAMKLEVFPVPDGQIAVFEDADGNIRVIGVPEPNLSISDIAKIALDLGADSVELSAGGSAGGSA [r18_83_TrMRF] | -0.45 ± 0.21 | 0.451 ± 0.053 | 0.155 ± 0.16
SAGGSAGGSAMKPVPFEVLSVSYPVLPNGTRIRLVEIKFPETGEVKWIELSPDDPVIKALLSAGGSAGGSAG [r3_57_JUSTAS] | 1.899 ± 0.011 | 2.27 ± 0.029 | 2.06 ± 0.086
SAGGSAGGSAMKTFTKTFSSPEEAERAAEEIKEKLEKEGKKVKITFEKPETDTYIVTITIESAGGSAGGSAG [r3_211_JUSTAS] | 3.93 ± 0.12 | 3.44 ± 0.16 | 3.82 ± 0.19
SAGGSAGGSAMKTLVIEGLSLEEIEELAKEIPGKTVRIVFKDGSVITIYPDGKIEIEPLPESAGGSAGGSAG [r3_269_TrROS_Hall] | 2.64 ± 0.031 | 1.75 ± 0.059 | 2.37 ± 0.054
SAGGSAGGSAMKTSSGTVSFPDSTVKLSYENFGDGSVKKSVVEVVSRPPPPPVPPSNPHYLQSAGGSAGGSA [r18_176_JUSTAS] | 0.567 ± 0.22 | 0.667 ± 0.12 | 0.702 ± 0.39
SAGGSAGGSAMKVPLENVENPKKFPGTGLEIYTFTDKETGKKKIVLVEKPPNKGKKITVIESAGGSAGGSAG [r3_491_JUSTAS] | -0.146 ± 0.28 | 0.0339 ± 0.12 | 0.0523 ± 0.14
SAGGSAGGSAMKVRVKIKITRGSKEYEEEFILPEEEIEKLKEEIPEDYEVEIVDKEPLVLKSAGGSAGGSAG [r3_195_JUSTAS] | 0.771 ± 0.16 | 0.129 ± 0.16 | 0.46 ± 0.27
SAGGSAGGSAMKVSTTPVTLPNGESATLETLPDGTKVLKVGDKYIVVYPSGEVKEVPLEELLSAGGSAGGSA [r18_379_JUSTAS] | 1.76 ± 0.046 | 1.43 ± 0.06 | 1.59 ± 0.12
SAGGSAGGSAMKYYVTITFTDPNNGNTTTEIKEVTTEEEVEKVVEELAPSSYASVKVSIKPKSAGGSAGGSA [r18_258_JUSTAS] | 1.16 ± 0.28 | 0.304 ± 0.059 | 0.892 ± 0.2
SAGGSAGGSAMLVIRVVTEDGEEREIEIPEGEELTLEEILAALRTPDGREVPIERVEIFPASAGGSAGGSAG [r3_465_TrROS_Hall] | 1.75 ± 0.029 | 2.04 ± 0.046 | 1.84 ± 0.11
SAGGSAGGSAMPEPVLIVVEVESLEEAKKLAEELAVEGVKVEVDPESGLVKIEIEKESLLESAGGSAGGSAG [r3_186_TrMRF] | 1.23 ± 0.08 | 1.03 ± 0.092 | 1.12 ± 0.11
SAGGSAGGSAMPGKTYRVRIRLYNEETGELVEERELEVETLDELKEAAEKEGWKIVEIEVESAGGSAGGSAG [r3_423_TrROS_Hall] | 3.49 ± 0.11 | 3.14 ± 0.14 | 3.36 ± 0.19
SAGGSAGGSAMPGQKVRLTDELKKAGLEIEEAEVVEVDGKLYIRVNGKIIEIDADAIEEIEPSAGGSAGGSA [r18_445_TrROS_Hall] | 1.43 ± 0.037 | 0.366 ± 0.13 | 1.11 ± 0.1
SAGGSAGGSAMPKVTIKITVYNAETGELRTVTLTLPEEDMSLEEIAAALPPGWRIVKVELLSAGGSAGGSAG [r3_80_TrROS_Hall] | 4.65 ± 0.074 | 3.46 ± 0.077 | 4.34 ± 0.075

Sequence | folding stability dG unfold [1] [kcal/mol] | folding stability dG unfold [2] [kcal/mol] | folding stability dG unfold [3] [kcal/mol]
SAGGSAGGSAMPLEKVIKNLTSSGSVESLKEKLAKEYGVEKVEVTKDPNSDTYSAKVFLKKPSAGGSAGGSA [r18_275_JUSTAS] | -0.0178 ± 0.31 | -0.147 ± 0.18 | 0.131 ± 0.15
SAGGSAGGSAMPPDAKPVRTETDPATGTTTEYILYPDSDTTIRKTHLPDGSVQVEEFSVSKTSAGGSAGGSA [r18_521_JUSTAS] | -0.491 ± 0.17 | -0.743 ± 0.15 | -0.491 ± 0.29
SAGGSAGGSAMPPLISTTPILGEEPGKRLVREIVTLPDGSLIELTYDEDGNVIESKKYIVGKSAGGSAGGSA [r18_467_JUSTAS] | 1.22 ± 0.037 | 0.132 ± 0.041 | 0.94 ± 0.049
SAGGSAGGSAMPTYDNPDSLSIEEVKEKVAKEAKEKYPGKSNITVPVKFSDGTEYTVTIKIESAGGSAGGSA [r18_449_JUSTAS] | -0.771 ± 0.21 | -0.288 ± 0.05 | -0.405 ± 0.21
SAGGSAGGSAMRELVKRAAKNGNPGQKVMIRPPDKRYFPITVEGNKIEPKDLPPGWEVHVISAGGSAGGSAG [r3_244_TrROS] | -0.443 ± 0.3 | -0.427 ± 0.39 | -0.37 ± 0.28
SAGGSAGGSAMRLEIELENGLKIEIELEVNEDGELKMKIKIEPLPPVPEVVVTKVVKLEEESAGGSAGGSAG [r3_15_TrROS_Hall] | 1.69 ± 0.12 | 1.72 ± 0.29 | 1.98 ± 0.39
SAGGSAGGSAMSEEERRRRAEEERRKKPPVFKITEITVERDEDGNLRVTFRLEDGSTVTIELSAGGSAGGSA [r18_423_TrROS_Hall] | 3.33 ± 0.088 | 1.89 ± 0.039 | 2.91 ± 0.14
SAGGSAGGSAMSPTEAERARPVPVVKTETTVTLDPSGYRVETVTYDGGVTETVVTPLPPELASAGGSAGGSA [r18_192_JUSTAS] | -0.143 ± 0.11 | 0.0994 ± 0.04 | 0.0301 ± 0.085
SAGGSAGGSAMSVTATVPEKPVTLTYIPPNTVTKTVIDPSTGTTTTTEVNLPPGVVPASLLLSAGGSAGGSA [r18_59_JUSTAS] | -0.191 ± 0.13 | 0.313 ± 0.05 | 0.14 ± 0.045
SAGGSAGGSAMSVVVKYTVLLTDPVTGKTTVVPVTATLPVSDGTAKTIEEIVAEHPNYEILESAGGSAGGSA [r18_267_JUSTAS] | 1.3 ± 0.026 | 1.81 ± 0.068 | 1.56 ± 0.039
SAGGSAGGSAMTAREIADELVKEGKEVKVTVRRPGEEKEITVTKEGEPLPPGAEIVKIEEVSAGGSAGGSAG [r3_421_TrROS_Hall] | 0.187 ± 0.08 | -0.678 ± 0.19 | 0.0343 ± 0.14
SAGGSAGGSAMTITVEVPPSVPAEEAAERVAERLRAEFPVPDIRVTVETTPDGTVTVTITEASAGGSAGGSA [r18_1_JUSTAS] | 0.436 ± 0.09 | -0.291 ± 0.16 | 0.275 ± 0.1
SAGGSAGGSAMTLNVPDAGGKTYTVEVLSYDPVKNTWTLLNPSTSETITITAEEAAKIKAAASAGGSAGGSA [r18_161_JUSTAS] | 2.01 ± 0.066 | 2.01 ± 0.072 | 2.1 ± 0.11
SAGGSAGGSAMTLRVKITLPDGRELELEIEAETEEEALAALKELIKKLFPEVKEVKIEVEPESAGGSAGGSA [r18_434_TrROS_Hall] | 4.85 ± 0.38 | 3.91 ± 0.3 | 4.84 ± 0.4
SAGGSAGGSAMTPQVIKVTLYKPATGDVRTVVVLDPVPNTSLDEVAAALPSDYVVAKVEVGSAGGSAGGSAG [r3_80_TrMRF] | -0.308 ± 0.33 | 0.166 ± 0.079 | -0.0325 ± 0.14
SAGGSAGGSAMTPVTIKVTLTNPATGSTTTKTIYVPEPNPSVEEIKKKLPSDWTVTSITLSSAGGSAGGSAG [r3_80_JUSTAS] | 0.828 ± 0.16 | 1.23 ± 0.045 | 1.07 ± 0.16
SAGGSAGGSAMTTTSTSTYPDSITTTTTTTVDGTYIITTTTFYPATGTTTTTTTTLPPSLTSAGGSAGGSAG [r3_316_JUSTAS] | 1.987 ± 0.011 | 2.91 ± 0.093 | 2.41 ± 0.048
SAGGSAGGSAMTVLVMEIKIELRVNEDGSLELRMEIEIKPVEPITLEELAEKLGLSKEELLSAGGSAGGSAG [r3_338_TrROS_Hall] | 2.91 ± 0.085 | 3.28 ± 0.12 | 3.03 ± 0.14
SAGGSAGGSAMTVRFGKPEELEKAEELAEEIAKAHPGKPIKVTVTKDPNNPDEYTVTITEESAGGSAGGSAG [r3_131_JUSTAS] | 0.544 ± 0.09 | -0.24 ± 0.16 | 0.289 ± 0.14
SAGGSAGGSAMTVRIEFEDGSVKEIPAEEFSEDFIKALPKKYKVSEYPEPPLDNNKSNILKSAGGSAGGSAG [r3_69_JUSTAS] | 0.697 ± 0.085 | -0.0131 ± 0.059 | 0.431 ± 0.091
SAGGSAGGSAMVITKTTASVEEVKEEIKKEYPNANVKITKVSTSADGKTTYKIEIKIPKNNKSAGGSAGGSA [r18_464_JUSTAS] | 2.5 ± 0.033 | 0.586 ± 0.067 | 2 ± 0.16
